These results are taken from patent US5844093.

In assay [1] the target is EGFR on EGFR-bearing tumor cells (human) (UniProt P00533). The experiment in a line: flow cytometry, HT29 cells, crude bacterial supernatant.
For assay [2] the target is unchanged. As to the kind of experiment: flow cytometry, A431 cells, crude bacterial supernatant. (In flow cytometry, cells or beads pass a laser one at a time.)
Assay [3] shares this target. The experiment in a line: flow cytometry, MDA MB 231 cells, crude bacterial supernatant.

scFv derived from MAb 425: the mean of arbritary fluorescence units (arbitrary fluorescence units) in assay [1] was 2.5; in assay [2] it was 85.5; in assay [3] it was 21.3.
